# Laboratory results as given in the Human Domainome abundance scans (Beltran et al. 2025).
# ± gives the uncertainty stated by the source.
# Assay: abundance fitness (aPCA) (normalised: wild type 0, dead -1); higher = more abundant; growth selection in yeast, the domain comes from the species named
# Conditions: Homo sapiens
row,Substance,abundance fitness
1,"DnaJ homolog subfamily B member 1 A12C, P25685",-0.213 ± 0.14
2,"DnaJ homolog subfamily B member 1 A12D, P25685",-0.38 ± 0.11
3,"DnaJ homolog subfamily B member 1 A12E, P25685",-0.277 ± 0.13
4,"DnaJ homolog subfamily B member 1 A12F, P25685",-0.346 ± 0.092
5,"DnaJ homolog subfamily B member 1 A12G, P25685",-0.421 ± 0.1
6,"DnaJ homolog subfamily B member 1 A12H, P25685",-0.175 ± 0.15
7,"DnaJ homolog subfamily B member 1 A12I, P25685",-0.163 ± 0.11
8,"DnaJ homolog subfamily B member 1 A12K, P25685",-0.02 ± 0.077
9,"DnaJ homolog subfamily B member 1 A12L, P25685",-0.179 ± 0.068
10,"DnaJ homolog subfamily B member 1 A12M, P25685",-0.139 ± 0.067
11,"DnaJ homolog subfamily B member 1 A12N, P25685",-0.147 ± 0.089
12,"DnaJ homolog subfamily B member 1 A12P, P25685",-0.108 ± 0.12
13,"DnaJ homolog subfamily B member 1 A12Q, P25685",-0.094 ± 0.094
14,"DnaJ homolog subfamily B member 1 A12R, P25685",-0.147 ± 0.07
15,"DnaJ homolog subfamily B member 1 A12S, P25685",-0.191 ± 0.078
16,"DnaJ homolog subfamily B member 1 A12T, P25685",-0.28 ± 0.088
17,"DnaJ homolog subfamily B member 1 A12V, P25685",-0.145 ± 0.08
18,"DnaJ homolog subfamily B member 1 A12Y, P25685",-0.559 ± 0.46
19,"DnaJ homolog subfamily B member 1 A15C, P25685",-0.056 ± 0.14
20,"DnaJ homolog subfamily B member 1 A15D, P25685",-0.502 ± 0.092
21,"DnaJ homolog subfamily B member 1 A15E, P25685",-0.481 ± 0.068
22,"DnaJ homolog subfamily B member 1 A15F, P25685",-0.814 ± 0.13
23,"DnaJ homolog subfamily B member 1 A15H, P25685",-0.866 ± 0.15
24,"DnaJ homolog subfamily B member 1 A15I, P25685",-0.69 ± 0.14
25,"DnaJ homolog subfamily B member 1 A15K, P25685",-0.818 ± 0.096
26,"DnaJ homolog subfamily B member 1 A15L, P25685",-0.801 ± 0.071

row,Substance,abundance fitness
1,"DnaJ homolog subfamily B member 1 A15M, P25685",-0.627 ± 0.1
2,"DnaJ homolog subfamily B member 1 A15N, P25685",-0.668 ± 0.14
3,"DnaJ homolog subfamily B member 1 A15P, P25685",-0.702 ± 0.098
4,"DnaJ homolog subfamily B member 1 A15Q, P25685",-0.648 ± 0.12
5,"DnaJ homolog subfamily B member 1 A15R, P25685",-0.82 ± 0.055
6,"DnaJ homolog subfamily B member 1 A15S, P25685",-0.109 ± 0.074
7,"DnaJ homolog subfamily B member 1 A15T, P25685",-0.271 ± 0.078
8,"DnaJ homolog subfamily B member 1 A15W, P25685",-1.17 ± 0.085
9,"DnaJ homolog subfamily B member 1 A15Y, P25685",-1 ± 0.16
10,"DnaJ homolog subfamily B member 1 A23C, P25685",-0.169 ± 0.11
11,"DnaJ homolog subfamily B member 1 A23D, P25685",-0.852 ± 0.22
12,"DnaJ homolog subfamily B member 1 A23E, P25685",-0.149 ± 0.086
13,"DnaJ homolog subfamily B member 1 A23F, P25685",-0.816 ± 0.1
14,"DnaJ homolog subfamily B member 1 A23G, P25685",-0.184 ± 0.08
15,"DnaJ homolog subfamily B member 1 A23H, P25685",-0.312 ± 0.14
16,"DnaJ homolog subfamily B member 1 A23I, P25685",-0.819 ± 0.11
17,"DnaJ homolog subfamily B member 1 A23K, P25685",-0.612 ± 0.11
18,"DnaJ homolog subfamily B member 1 A23L, P25685",-0.839 ± 0.053
19,"DnaJ homolog subfamily B member 1 A23M, P25685",-0.328 ± 0.068
20,"DnaJ homolog subfamily B member 1 A23N, P25685",-0.169 ± 0.12
21,"DnaJ homolog subfamily B member 1 A23P, P25685",-0.917 ± 0.095
22,"DnaJ homolog subfamily B member 1 A23Q, P25685",-0.241 ± 0.13
23,"DnaJ homolog subfamily B member 1 A23R, P25685",-0.442 ± 0.066
24,"DnaJ homolog subfamily B member 1 A23S, P25685",-0.159 ± 0.056
25,"DnaJ homolog subfamily B member 1 A23T, P25685",-0.339 ± 0.11
26,"DnaJ homolog subfamily B member 1 A23W, P25685",-0.984 ± 0.09

row,Substance,abundance fitness
1,"DnaJ homolog subfamily B member 1 A23Y, P25685",-0.665 ± 0.097
2,"DnaJ homolog subfamily B member 1 A28D, P25685",-0.521 ± 0.21
3,"DnaJ homolog subfamily B member 1 A28E, P25685",-0.116 ± 0.12
4,"DnaJ homolog subfamily B member 1 A28F, P25685",0.079 ± 0.14
5,"DnaJ homolog subfamily B member 1 A28G, P25685",-0.106 ± 0.086
6,"DnaJ homolog subfamily B member 1 A28I, P25685",0.093 ± 0.095
7,"DnaJ homolog subfamily B member 1 A28K, P25685",-0.149 ± 0.083
8,"DnaJ homolog subfamily B member 1 A28L, P25685",-0.032 ± 0.065
9,"DnaJ homolog subfamily B member 1 A28M, P25685",-0.06 ± 0.088
10,"DnaJ homolog subfamily B member 1 A28N, P25685",-0.119 ± 0.12
11,"DnaJ homolog subfamily B member 1 A28P, P25685",-0.953 ± 0.16
12,"DnaJ homolog subfamily B member 1 A28Q, P25685",0.084 ± 0.16
13,"DnaJ homolog subfamily B member 1 A28R, P25685",0.033 ± 0.09
14,"DnaJ homolog subfamily B member 1 A28S, P25685",-0.172 ± 0.11
15,"DnaJ homolog subfamily B member 1 A28T, P25685",-0.094 ± 0.1
16,"DnaJ homolog subfamily B member 1 A28V, P25685",0.043 ± 0.081
17,"DnaJ homolog subfamily B member 1 A28W, P25685",0.024 ± 0.11
18,"DnaJ homolog subfamily B member 1 A28Y, P25685",0.007 ± 0.14
19,"DnaJ homolog subfamily B member 1 A41D, P25685",-0.036 ± 0.13
20,"DnaJ homolog subfamily B member 1 A41E, P25685",-0.009 ± 0.11
21,"DnaJ homolog subfamily B member 1 A41F, P25685",-0.128 ± 0.25
22,"DnaJ homolog subfamily B member 1 A41G, P25685",-0.104 ± 0.067
23,"DnaJ homolog subfamily B member 1 A41H, P25685",-0.24 ± 0.096
24,"DnaJ homolog subfamily B member 1 A41I, P25685",-0.132 ± 0.17
25,"DnaJ homolog subfamily B member 1 A41K, P25685",-0.178 ± 0.092
26,"DnaJ homolog subfamily B member 1 A41L, P25685",-0.168 ± 0.066

row,Substance,abundance fitness
1,"DnaJ homolog subfamily B member 1 A41M, P25685",-0.214 ± 0.089
2,"DnaJ homolog subfamily B member 1 A41N, P25685",-0.164 ± 0.17
3,"DnaJ homolog subfamily B member 1 A41P, P25685",-0.432 ± 0.11
4,"DnaJ homolog subfamily B member 1 A41Q, P25685",-0.134 ± 0.077
5,"DnaJ homolog subfamily B member 1 A41R, P25685",-0.181 ± 0.07
6,"DnaJ homolog subfamily B member 1 A41S, P25685",-0.146 ± 0.072
7,"DnaJ homolog subfamily B member 1 A41T, P25685",-0.055 ± 0.068
8,"DnaJ homolog subfamily B member 1 A41V, P25685",-0.02 ± 0.075
9,"DnaJ homolog subfamily B member 1 A41W, P25685",-0.255 ± 0.064
10,"DnaJ homolog subfamily B member 1 A41Y, P25685",-0.631 ± 0.43
11,"DnaJ homolog subfamily B member 1 A49C, P25685",0.049 ± 0.12
12,"DnaJ homolog subfamily B member 1 A49D, P25685",-0.086 ± 0.12
13,"DnaJ homolog subfamily B member 1 A49E, P25685",0.126 ± 0.094
14,"DnaJ homolog subfamily B member 1 A49F, P25685",-0.358 ± 0.15
15,"DnaJ homolog subfamily B member 1 A49G, P25685",-0.187 ± 0.12
16,"DnaJ homolog subfamily B member 1 A49H, P25685",-0.132 ± 0.18
17,"DnaJ homolog subfamily B member 1 A49I, P25685",-0.304 ± 0.16
18,"DnaJ homolog subfamily B member 1 A49K, P25685",0.13 ± 0.13
19,"DnaJ homolog subfamily B member 1 A49L, P25685",-0.75 ± 0.086
20,"DnaJ homolog subfamily B member 1 A49N, P25685",0.115 ± 0.17
21,"DnaJ homolog subfamily B member 1 A49P, P25685",-0.743 ± 0.074
22,"DnaJ homolog subfamily B member 1 A49Q, P25685",-0.394 ± 0.086
23,"DnaJ homolog subfamily B member 1 A49R, P25685",0.021 ± 0.082
24,"DnaJ homolog subfamily B member 1 A49S, P25685",-0.037 ± 0.074
25,"DnaJ homolog subfamily B member 1 A49T, P25685",0.094 ± 0.099
